Experimental data from patent US20140004120A1 (Daiichi Sankyo, published 2014).

Biological target: T1, rsDR5 (recombinant human DR5 extracellular domain protein) (human, UniProt O14763 56-183)
T1 construct: the two may be offset
Assay: gel filtration (Superdex 200) of the mixture of cB273 Fab fragment and rsDR5; complex then crystallized

- binding result: binds
B1: cB273 Fab fragment (Fab, V domains shown)
VH: EVQLQQSGPELVKPGASVKISCKASGYSFIGYFMNWMKQSHGKSLEWIGRFNPYNGDTFYNQKFKGKATLTVDKSSTTAHMELLSLTSEDSAVYFCGRSAYYFDSGGYFDYWGQGTTLTVSS
VL: DVVMTQTPLSLPVSLGDQASISCRSSQSLVHSNGNTYLHWYLQKPGQSPKLLIYKVSNRFSGVPDRFSGSGSGTDFTLKISRVEAEDLGIYFCSQSTHVPWTFGGGTKLEIKR
